From US6136558A, “Heregulin variants” (Genentech, Inc., priority 1998, dated 2000)
Ends that are not written are not given here.

Tests used:
[1] = target: ErbB-4 receptor-Ig fusion (human) (UniProt Q15303); experiment: phage ELISA, ratio to wild-type HRG-β1 177-244 on phage; clone selected on ErbB-4-Ig
[2] = target: ErbB-3 receptor-Ig fusion (human) (UniProt P21860); experiment: phage ELISA, ratio to wild-type HRG-β1 177-244 on phage
ErbB-3-Ig [3] = experiment: Phage ELISA, binding to ErbB-3-Ig; conditions: for Phage ErbB-3 EC50 (wt)/EC50 (mut): relative to wild-type HRG-β1 EGF phage in same run, above 1 = higher affinity than wild-type
Source text: (§1) To produce phage displaying the domains, mutagenesis reaction mixtures were electrotransformed into XL1-Blue™ cells (Stratagene, Inc., La Jolla, Calif.), according to the manufacturer's protocol. The transformed cells were then infected with 10^11 plaque-forming units (pfu) M13K07 helper phage (Promega Corp., Madison, Wis.). […] The phage were resuspended in phosphate-buffered saline (PBS: 0.01 M sodium phosphate, 0.1 M NaCl, pH 7.5).
(§2) Microtiter plates (Nunc Maxisorp™ 96-well plates, Inter Med, Denmark) for phage ELISA were prepared as follows. The wells were precoated overnight with 0.5 μg of rabbit anti-human IgG (Fc gamma fragment-specific) antibodies (Jackson Immunoresearch, West Grove, Pa.) in 100 μL 50 mM NaCO3 (pH 9.6). The wells were blocked for 30 minutes (min) with 200 μL PBS containing 0.1% bovine serum albumin (BSA) and rinsed with wash buffer (PBS containing 0.05% Tween 20™). The wells were then coated with 0.1 μg ErbB-2/3-Ig in binding buffer (PBS, 0.1% BSA, 0.05% Tween 20™) for 1 h, and washed again.
(§3) Following incubation for 2 h at room temperature, plates were washed extensively and treated with a 1:900 dilution of anti-M13 horseradish peroxidase conjugate (Pharmacia, Piscataway, N.J.) for 20 min. The amount of phage binding was determined by assaying horseradish peroxidase activity using o-phenylenediamine dihydrochloride) substrate solution (Sigma Chemical Company, St. Louis, Mo.).
(§4) Alanine-substituted variants were generated by site-directed mutagenesis according to Kunkel et al., Methods Enzymol. […] A series of oligonucleotides was used to generate a series of constructs that expressed a series of variants in which consecutive residues were mutated to alanine.
(§5) In addition, phagemid vectors for use in producing phage displaying mutated HRG-β1 EGFs containing various combinations of the above mutations ("combination variants") were prepared by Kunkel mutagenesis, using templates prepared from several of the above-described variants. […] Some of the variants and combination variants were also tested for relative ErbB-4-Ig affinity to assess specificity.
(§6) The affinities of the variants for ErbB-3-Ig and ErbB-4-Ig were determined to assess specificity.

ErbB-4-Ig [4] = experiment: Phage ELISA, binding to ErbB-4-Ig; conditions: for Phage ErbB-4 EC50 (wt)/EC50 (mut): relative to wild-type HRG-β1 EGF phage in same run, above 1 = higher affinity than wild-type
Source text: as §1, §2, §3, §4, §5, §6

ErbB-4-Ig [5] = experiment: Inhibition of 125I-HRG-β1 177-244 binding to ErbB-4-Ig by soluble protein
Method: (§7) The affinities of the Trx-variant fusions for ErbB receptor-Ig fusions were determined by measuring inhibition of ^125 I-HRG-β1 177-244 binding to ErbB-3-Ig and ErbB-4-Ig. Receptor fusions were coated on plates (Nunc Maxisorp C™ break-apart strip wells, Inter Med, Denmark) via anti-human IgG, as described in Example 1 for phage ELISA. Binding assays were carried out with a constant amount of ^125 I-HRG-β1 177-244 (100-300 pM) and varying concentrations (100 pM-4 μM) of unlabeled Trx-variant fusion. Following incubation for 1-3 h at room temperature, plates were washed, and the amount of bound ^125 I-HRG-β1 177-244 in each well was counted on a gamma counter (Isodata, ICN Biomedic Systems, Huntsville, Ala.). For the ErbB-3 binding assays, the blocking buffer was TBST (0.025 M Tris-HC1 [pH 7.5], 0.15 M NaCl, 0.02% Tween 20™) containing 1% BSA; the binding buffer was RPMI 1640™ cell culture media (Gibco-BRL, Gaithersburg, Md.) containing 2 mM glutamine, 100 U/mL penicillin, 100 μg/mL streptomycin, 10 mM HEPES buffer (pH 7.2), 0.2% BSA; and the wash buffer was TBST. For the ErbB-4 binding assays, PBS containing 1% BSA was used as the blocking and binding buffers, and the wash buffer was PBS containing 0.05% Tween 20™.

ErbB-3-Ig [6] = experiment: Inhibition of 125I-HRG-β1 177-244 binding to ErbB-3-Ig by soluble protein
Method: as §7

ErbB-2/3-Ig = experiment: Inhibition of 125I-HRG binding to ErbB-2/3-Ig by soluble variant
[7] = target: ErbB-2/3 receptor-Ig fusion (ErbB-2/3-Ig); experiment: Phage ELISA, competition with soluble ErbB-2/3-Ig; type: binding; conditions: EGF-like domain displayed monovalently on phage as pIII fusion; soluble ErbB-2/3-Ig competing half of the phage off the plate; average of duplicate experiments
Source text: as §1, §2, §3

[8] = target: ErbB-3 receptor-Ig fusion (human) (UniProt P21860); experiment: phage ELISA, soluble ErbB-3-Ig as competitor (only one value in the row, read as the phage column)
[9] = target: ErbB-4 receptor-Ig fusion (human) (UniProt Q15303); experiment: phage ELISA, soluble ErbB-4-Ig as competitor
[10] = target: ErbB-4 receptor-Ig fusion (human) (UniProt Q15303); experiment: displacement of 125I-HRG-β1 177-244 from ErbB-4-Ig
[11] = target: ErbB-3 receptor-Ig fusion (human) (UniProt P21860); experiment: displacement of 125I-HRG-β1 177-244 from ErbB-3-Ig
[12] = target: ErbB-4 receptor-Ig fusion (human) (UniProt Q15303); experiment: phage ELISA, soluble ErbB-4-Ig as competitor; remark: listed apart in the source
[13] = target: ErbB-3 receptor-Ig fusion (human) (UniProt P21860); experiment: phage ELISA, ratio to wild-type HRG8 phage (reference itself)
[14] = target: ErbB-4 receptor-Ig fusion (human) (UniProt Q15303); experiment: as above
[15] = target: ErbB-3 receptor-Ig fusion (human) (UniProt P21860); experiment: phage ELISA, soluble ErbB-3-Ig as competitor
[16] = target: ErbB-2/3 receptor-Ig fusion (human) (UniProt P04626); experiment: phage ELISA, soluble ErbB-2/3-Ig as competitor
[17] = target: ErbB-3 receptor-Ig fusion (human) (UniProt P21860); experiment: phage ELISA, ratio to wild-type HRG8 phage
[18] = target: ErbB-4 receptor-Ig fusion (human) (UniProt Q15303); experiment: phage ELISA, ratio to wild-type HRG8 phage
[19] = target: ErbB-4 receptor-Ig fusion (human) (UniProt Q15303); experiment: displacement of 125I-HRG from ErbB-4-Ig
[20] = target: ErbB-2/3 heterodimers on MCF7 breast cancer carcinoma cells (Homo sapiens (Human), UniProt P04626); experiment: cell-based or functional assay
[21] = target: ErbB-3 receptor-Ig fusion (human) (UniProt P21860); experiment: displacement of 125I-HRG from ErbB-3-Ig
[22] = target: ErbB-2/3 receptor-Ig fusion (human) (UniProt P04626); experiment: displacement of 125I-HRG from ErbB-2/3-Ig
[23] = soluble HRG-β1 EGF variant free of pIII, inhibition of 125I-HRG binding, read-out: ErbB-4-Ig EC50
[24] = soluble HRG-β1 EGF variant free of pIII, inhibition of 125I-HRG binding, read-out: ErbB-3-Ig EC50
[25] = soluble thioredoxin (Trx) fusion, inhibition of 125I-HRG-β1 177-244 binding, read-out: Sol EC50, binding to the ErbB-4 Receptor
[26] = soluble thioredoxin (Trx) fusion, inhibition of 125I-HRG-β1 177-244 binding, read-out: Sol EC50, binding to the ErbB-3 Receptor

Molecule: HRG-β1 177-244 L179M on phage (ligand)
- EC50 Mut/Wt [1]: 1.5
- EC50 Mut/Wt [2]: 1.2

Molecule: G1: K211R, P213S, N214L (SHLVKCAEKEKTFCVNGGECFMVKDLSNPSRYLCRCSLEFTGDRCQNYVMAS)
- Phage ErbB-3 EC50 (wt)/EC50 (mut) (ErbB-3-Ig [3]; phage ELISA): 1.2 ± 0.36
- Phage ErbB-4 EC50 (wt)/EC50 (mut) (ErbB-4-Ig [4]; phage ELISA): 1.6

Molecule: F1: single library F variant: Met198Lys and Met226Ile
- EC50 (ErbB-4-Ig [5]; [23]): 0.26 ± 0.011 nM
- EC50 (ErbB-3-Ig [6]; [24]): 0.6 ± 0.04 nM

Molecule: HRG8: wild-type HRG-β1 177-228 minimal EGF-like domain; on phage via (GGGS)3 linker to pIII 323, or soluble (SHLVKCAEKEKTFCVNGGECFMVKDLSNPSRYLCKCPNEFTGDRCQNYVMAS; not fully specified; cysteine pairing not given here) [reference compound]
- affinity for the 2/3-heterodimer versus the 3/3 homodimer (ErbB-2/3-Ig; ErbB-2/3-Ig versus ErbB-3-Ig homodimer): approximately 100 fold
- EC50 (ErbB-2/3-Ig; soluble HRG-β1 EGF variant free of pIII, inhibition of 125I-HRG binding): 0.033 ± 0.003 nM
- EC50 (ErbB-3-Ig [3]; phage ELISA, reference value of Table 13, read-out: wild-type HRG-β1 EGF-phage EC50 for ErbB3-Ig): 135 ± 104 nM
- Phage ErbB-3 EC50 (wt)/EC50 (mut) (ErbB-3-Ig [3]; phage ELISA): 1
- EC50 (ErbB-4-Ig [5]; [23]): 1.5 ± 0.1 nM
- EC50 [7]: 11 nM
- ErbB-2/3-Ig EC50 [7]: slight affinity enhancement
- EC50 (ErbB-3-Ig [6]; [24]): 2.3 ± 0.2 nM
- EC50 (ErbB-4-Ig [4]; phage ELISA, reference value of Table 13, read-out: wild-type HRG-β1 EGF-phage EC50 for ErbB4-Ig): 163 ± 112 nM
- Phage ErbB-4 EC50 (wt)/EC50 (mut) (ErbB-4-Ig [4]; phage ELISA): 1

Molecule: HRG-β1 177-244 H178E on phage (ligand)
- EC50 Mut/Wt [1]: 1.7
- EC50 Mut/Wt [2]: 9.5

Molecule: HRG-β1 177-244 V199A on phage (ligand)
- EC50 [8]: 27 nM
- EC50 [9]: 47 nM

Molecule: HRG-β1 177-244 L179V on phage (ligand)
- EC50 Mut/Wt [1]: 1.6
- EC50 Mut/Wt [2]: 1.5

Molecule: HRG-β1 177-244 H178W with Met in place of 228-231, on phage (ligand)
- EC50 Mut/Wt [1]: 1.7
- EC50 Mut/Wt [2]: 1.2

Molecule: A3: HRG-β1 EGF: S177W, H178E, K181P
- EC50 (ErbB-4-Ig [5]; [23]): 2.1 ± 0.1 nM
- EC50 (ErbB-3-Ig [6]; [24]): 4.3 ± 0.2 nM

B1: TH-WT (thioredoxin fused at its C-terminus to wild-type HRG-β1 146-244) (ligand)
chain: DDDDKAYVSSESPIRISVSTEGANTSSSTSTSTTGTSHLVKCAEKEKTFCVNGGECFMVKDLSNPSRYLCKCPNEFTGDRCQNYVMASFYKHLGIEFMEAEELY
- EC50 [10]: 15.4 nM
- EC50 (ErbB-4-Ig [5]; [25]): 15.4 nM
- EC50 (ErbB-3-Ig [6]; [26]): 47.6 nM
- EC50 [11]: 47.6 nM

B2: HRG8 (wild-type HRG-β1 EGF displayed on phage) (ligand)
chain: SHLVKCAEKEKTFCVNGGECFMVKDLSNPSRYLCKCPNEFTGDRCQNYVMAS
- EC50 [12]: 163 nM
- EC50(wt)/EC50(mut) [13]: 1
- EC50(wt)/EC50(mut) [14]: 1
- EC50 [15]: 135 nM
- EC50 [16]: 11 nM

B3: B3 (phage) (ligand)
chain: SHLVKCGEEREGFCVNGGECFMVKDLSNPSRYLCKCPNEFTGDRCQNYVMAS
- EC50(wt)/EC50(mut) [17]: 4.7
- EC50(wt)/EC50(mut) [18]: 1.7

B4: D4 (phage) (ligand)
chain: SHLVKCAEKEKTFCVNGGECYRVKTLSNPSRYLCKCPNEFTGDRCQNYVMAS
- EC50(wt)/EC50(mut) [17]: 2.9
- EC50(wt)/EC50(mut) [18]: 5

B5: I2 (phage) (ligand)
chain: SHLVKCAEKEKTFCVNGGECFMVKDLSNPSRYLCKCPNEFTGDRCQHYVIAS
- EC50(wt)/EC50(mut) [17]: 20
- EC50(wt)/EC50(mut) [18]: 10

B6: HRG8 (WT), soluble wild-type HRG-β1 EGF (ligand)
chain: SHLVKCAEKEKTFCVNGGECFMVKDLSNPSRYLCKCPNEFTGDRCQNYVMAS
modifications: ends and bridges not checked; cysteine pairing not given here
- EC50 [19]: 1.5 nM
- KIRA EC50 (tyrosine phosphorylation of the ErbB-2 receptor on MCF7 cells) [20]: 0.212 nM
- EC50 [21]: 2.3 nM
- EC50 [22]: 0.033 nM

B7: HRG2 (HRG-β1 177-244 displayed on phage) (ligand)
chain: SHLVKCAEKEKTFCVNGGECFMVKDLSNPSRYLCKCPNEFTGDRCQNYVMASFYKHLGIEFMEAEELY
- EC50 [12]: 19 nM
- EC50 [15]: 13 nM
- EC50 [16]: 6 nM

B8: HRG-β1: recombinantly produced HRGβ1 177-244 (wild-type) (protein)
chain: SHLVKCAEKEKTFCVNGGECFMVKDLSNPSRYLCKCPNEFTGDRCQNYVMASFYKHLGIEFMEAEELY
modifications: ends and bridges not checked
- EC50 (ErbB-3-Ig [3]; alanine-substituted HRG-β1 177-244 displayed on phage, read-out: Phage EC50, binding to the ErbB-3 Receptor): 13 nM
- EC50 (ErbB-4-Ig [5]; [25]): 14.8 nM
- EC50 (ErbB-3-Ig [6]; [26]): 9 nM
- EC50 (ErbB-4-Ig [4]; alanine-substituted HRG-β1 177-244 displayed on phage, read-out: Phage EC50, binding to the ErbB-4 Receptor): 19 nM
